The data set deals with the molecule itself. Put plainly: negative-stain electron microscopy.

B1: Cp149, CTD-less HBV core protein (domain or fragment)
chain: MDIDPYKEFGATVELLSFLPSDFFPSVRDLLDTASALYREALESPEHCSPHHTALRQAILCWGELMTLATWVGVNLEDPASRDLVVSYVNTNMGLKFRQLLWFHISCLTFGRETVIEYLVSFGVWIRTPPAYRPPNAPILSTLPETTVV
With B1, the binding result is reported as “binds”.

B2: Cp183-F97L (natural protein)
chain: MDIDPYKEFGATVELLSFLPSDFFPSVRDLLDTASALYREALESPEHCSPHHTALRQAILCWGELMTLATWVGVNLEDPASRDLVVSYVNTNMGLKLRQLLWFHISCLTFGRETVIEYLVSFGVWIRTPPAYRPPNAPILSTLPETTVVRRRGRSPRRRTPSPRRRRSQSPRRRRSQSRESQC
As for B2, the binding result was “binds”.

Source of the values: publication PMC8092406 (Proceedings of the National Academy of Sciences of the …, 2021).
